Test results taken from patent US20120165265A1, “Calcium Signaling Modulators Involving STIM and ORAI Proteins” (priority 2009, published 2012).
Values belong to the molecule of their own block, whether it stands above or below them.

Columns and labels:
CAD = target: T1, CAD (Homo sapiens, UniProt Q13586); assay: Co-immunoprecipitation of Orai1 fragments with CAD in HEK 293T cells; assay type: binding; settings: YFP-tagged Orai1 fragment with Flag-myc-CAD in HEK 293T cells
T1 construct: For STIM1 342-448 (CAD); expressed in transfected cells; host or cells: HEK 293T
Description: Immunoprecipitation and Immunoblot Analysis. Transfected HEK 293T cells (12-24 h) were washed with PBS and lysed in 50 mM Tris-HCl pH 7.5, 150 mM NaCl, 1% Triton X-100, and protease inhibitors. Lysates were spun at 12,000 rpm for 10 min, and the supernatant was incubated with anti-Flag M2 agarose beads (Sigma), or anti-myc or -HA antibody followed by IgG agarose beads (Pierce). Lysates and immunoprecipitates were subjected to SDS-PAGE, probed with HRP-conjugated secondary antibody and detected by enhanced chemiluminescence (Pierce).
STIM1-CAD BINDS TO THE N- AND C-TERMINI OF ORAI1. To identify regions of Orai1 important for activation by CAD, we characterized the binding of CAD to Orai1 using two approaches. First we expressed fusions of NubG with the N-terminus, the II-III cytoplasmic loop and the C-terminus of Orai1 in yeast together with different CAD-Cub-LV constructs. […] Based on the level of b-gal activity, CAD appears to interact with the Orai1 C-terminus with a higher affinity than with the N-terminus. We next expressed fusions of YFP with the N-terminus, the II-III loop and the C-terminus of Orai1 in HEK 293T cells together with Flag-myc-CAD. […]

endogenous CRAC channels = assay: NFAT-luciferase assay in HEK 293T (NFAT-Luc) cells; assay type: cell-based; settings: following treatment with TG+PMA
Description: NFAT-luciferase Assays. HEK 293T cells were co-transfected with the indicated constructs and an NFAT reporter gene (firefly luciferase gene C-terminal to 4×-NFAT site from the IL-2 gene). Cotransfection with the Renilla luciferase (pRLTK) gene driven by the TK promoter was used to control for cell number and transfection efficiency. After 12-18 h, cells were treated with a control DMSO solution (mock), PMA (1 μM), or PMA plus TG (1 μM) for 8 h. Assays were performed using the Dual Luciferase Reporter assay system (Promega). For each condition, luciferase activity was measured with 4 samples taken from duplicate wells using a 96-well automated luminometer (Turner Biosystems). Results are represented as the ratio of firefly to Renilla luciferase activity.
Identifying a Minimal Cytosolic Region of STIM1 that Opens the CRAC Channel. To identify the CRAC-activating domain of STIM1, we first tested a series of soluble cytosolic STIM1 fragments for their ability to activate an NFAT-dependent luciferase reporter gene (NFAT-luc). A series of constructs were generated by progressive truncation of the full-length cytosolic region of STIM1 (FIG. 2A; STIM1234-685; CT-STIM1) and were transiently expressed in a HEK 293T cell line containing NFAT-luc. […]

Orai1 [1] = target: T2, Orai1 (Homo sapiens, UniProt Q96D31); assay: Puncta formation of STIM1 variants by confocal microscopy in HEK 293 cells; assay type: cell-based; settings: coexpressed with eGFP-Orai1, TG
T2 construct: expressed in transfected cells; host or cells: HEK 293
Description: Confocal Microscopy. 6 h after transfection, HEK 293 cells were plated onto sterilized coverslips coated with poly-D-lysine and maintained in complete DMEM for an additional 12-18 h before imaging in Ringer's solution containing (in mM): 155 NaCl, 4.5 KCl, 2 CaCl2, 1 MgCl2, 10 D-glucose, and 5 Na-Hepes, pH 7.4. To deplete stores, cells were treated with 1 μM TG in Ca2+-free Ringer's (prepared by substituting 2 mM MgCl2 and 1 mM EGTA for CaCl2) for 10 min. eGFP and mCherry were excited simultaneously at 488 and 594 nm, respectively, on a Leica SP2 AOBS inverted confocal microscope equipped with a PL APO 100×/NA 1.4 oil immersion objective. Fluorescence emissions were collected at 615-840 nm (mCherry) and 510-570 nm (eGFP). All experiments were performed at 22-25° C.
Quantitation of STIM1 and Orai1 Recruitment into Puncta. Colocalization of eGFP-Orai1 and mCh-STIM1 variants was analyzed from background-corrected confocal image pairs acquired before and after store depletion. Puncta have two defining characteristics: (1) because they are sites of accumulation, STIM1 and Orai1 fluorescence intensities in puncta are greater than the respective mean intensities measured across the entire cell, and (2) because STIM1 and Orai1 co-localize in puncta, their fluorescence covariance is high. […]

Orai1 [2] = target: T2, Orai1; assay: Store-operated Ca2+ entry by STIM1 variants, single cell Ca2+ imaging; assay type: cell-based; settings: coexpressed with eGFP-Orai1, TG
Description: For FIG. 7, cells were loaded as above with 2 μM fura-2/AM for 25 min. Ratiometric Ca2+ imaging was performed with 350 and 380 nm excitation in 2 mM Ca2+ Ringer's solution on an Axiovert 35 inverted microscope using a VideoProbe imaging system as described (Bautista et al., 2002). mCherry-positive cells were identified using a 540±12 nm excitation and a 580LP emission filter (Chroma).
The Role of CAD in Orai1 Binding and Activation by STIM1. A key question is whether CAD is responsible for the clustering and activation of CRAC channels by full-length STIM1 following store depletion. To address this, we measured the ability of mCherry-tagged STIM1 variants containing CAD mutations to co-cluster with eGFP-Orai1 and activate Ca^2+ entry in response to TG (FIG. 7). STIM1-Orai1 colocalization was quantified as the fraction of total STIM1 and Orai1 fluorescence that was recruited to regions of high fluorescence covariance (FIG. 13), while Ca^2+ influx was measured with single cell Ca^2+ imaging. For each set of experiments we measured mCherry and GFP fluorescence to confirm that differences in the activity of the various STIM1 constructs were not due to differences in expression level (FIG. 14).

T2 sequence (Q96D31 whole entry): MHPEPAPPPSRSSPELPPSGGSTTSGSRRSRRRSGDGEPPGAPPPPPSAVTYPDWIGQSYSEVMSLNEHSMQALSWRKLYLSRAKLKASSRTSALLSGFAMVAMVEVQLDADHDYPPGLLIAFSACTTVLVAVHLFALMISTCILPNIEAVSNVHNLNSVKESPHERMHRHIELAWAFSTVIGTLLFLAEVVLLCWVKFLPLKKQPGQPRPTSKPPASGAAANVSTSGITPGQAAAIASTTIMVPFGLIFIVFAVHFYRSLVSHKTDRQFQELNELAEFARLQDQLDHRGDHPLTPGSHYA
T1 sequence (Q13586 342-448): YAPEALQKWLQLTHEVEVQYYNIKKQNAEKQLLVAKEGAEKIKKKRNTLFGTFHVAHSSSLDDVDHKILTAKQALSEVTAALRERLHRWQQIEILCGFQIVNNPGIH

- co-immunoprecipitation with CAD (CAD): not
B1: Orai11-70: Orai1 fragment aa 1-70 (protein)
chain: MHPEPAPPPSRSSPELPPSGGSTTSGSRRSRRRSGDGEPPGAPPPPPSAVTYPDWIGQSYSEVMSLNEHS
modifications: left off: small tags and cut ends

- puncta formation with Orai1 after store depletion (Orai1 [1]): failed to form puncta
B2: STIM1-DCAD: WT-STIM1 with the CAD deleted (protein)
chain: LSHSHSEKATGTSSGANSEESTAAEFCRIDKPLCHSEDEKLSFEAVRNIHKLMDDDANGDVDVEESDEFLREDLNYHDPTVKHSTFHGEDKLISVEDLWKAWKSSEVYNWTVDEVVQWLITYVELPQYEETFRKLQLSGHAMPRLAVTNTTMTGTVLKMTDRSHRQKLQLKALDTVLFGPPLLTRHNHLKDFMLVVSIVIGVGGCWFAYIQNRYSKEHMKKMMKDLEGLHRAEQSLHDLQERLHKAQEEHRTVEVEKVHLEKKLRDEINLAKQEAQRLKELREGTENERSRQKYAEEELEQVREALRKAEKELESHSSWSLVAALNIDPSWMGSTRPNPAHFIMTDDVDDMDEEIVSPLSMQSPSLQSSVRQRLTEPQHGLGSQRDLTHSDSESSLHMSDRQRVAPKPPQMSRAADEALNAMTSNGSHRLIEGVHPGSLVEKLPDSPALAKKALLALNHGLDKAHSLMELSPSAPPGGSPHLDSSRSHSPSSPDPDTPSPVGDSRALQASRNTRIPHLAGKKAVAEEDNGSIGEETDSSPGRKKFPLKIFKKPLKK
modifications: left off: large carriers
notes: WT-STIM1 with the CAD deleted
- NFAT activation by endogenous channels (endogenous CRAC channels): inhibited NFAT activation
- Ca2+ entry (SOCE) after store depletion (Orai1 [2]): failed to form puncta, cluster Orai1 or activate Ca^2+ entry
